Experimental findings from PMC10990141 are described below.

The target of the test is F-actin from rabbit skeletal muscle G-actin (rabbit) (UniProt P68135). In words: cryoEM images and 2D image averages; 0.83 uM full-length myosin-5a, 3.6 uM calmodulin, 2.1 uM F-actin, 0.20 mM ATP, 95 mM KCl, 48 uM MgCl2, 0.12 mM EGTA, 10 mM MOPS pH 7.0, 22 °C; applied within 10 s to a lacey carbon grid and flash frozen.

A value given as a limit tells only on which side of the number the result lay.

For “full-length mouse myosin-5a, melanocyte-specific isoform, with calmodulin (from UniProt P0DP23 1-149) (complex)”, the percent of the added myosin attached to actin was less than 10%.
